Assay results from patent US20210221908A1 (LAMKAP BIO BETA, published 2021).

T1: human CEACAM5 on MKN-45 cells (human, UniProt P06731 35-685)
T1 construct: endogenous CEA of MKN-45 gastric adenocarcinoma cells, which also carry CD47 and CEACAM6; UniProtKB P06731; also called CD66e
T1 sequence: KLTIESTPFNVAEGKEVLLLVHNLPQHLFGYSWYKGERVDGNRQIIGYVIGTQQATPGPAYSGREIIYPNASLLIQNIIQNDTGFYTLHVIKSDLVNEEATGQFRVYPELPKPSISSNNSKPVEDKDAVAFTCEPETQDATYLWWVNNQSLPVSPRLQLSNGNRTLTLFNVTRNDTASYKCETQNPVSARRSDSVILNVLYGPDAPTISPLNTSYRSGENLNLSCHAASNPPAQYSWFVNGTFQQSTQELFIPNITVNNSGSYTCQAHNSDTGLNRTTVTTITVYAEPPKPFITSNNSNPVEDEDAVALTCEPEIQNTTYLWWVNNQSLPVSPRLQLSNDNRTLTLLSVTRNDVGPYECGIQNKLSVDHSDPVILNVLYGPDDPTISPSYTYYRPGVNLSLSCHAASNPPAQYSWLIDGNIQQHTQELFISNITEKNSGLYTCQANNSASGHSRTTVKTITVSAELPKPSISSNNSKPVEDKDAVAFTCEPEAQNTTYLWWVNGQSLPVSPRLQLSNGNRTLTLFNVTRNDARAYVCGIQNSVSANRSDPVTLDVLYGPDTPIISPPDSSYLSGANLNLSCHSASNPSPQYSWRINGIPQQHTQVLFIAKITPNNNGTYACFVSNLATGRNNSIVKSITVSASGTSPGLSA

T2: human CEACAM6 on MKN-45 cells (human, UniProt P40199 35-320)
T2 construct: whole, on cells
T2 sequence (looked up): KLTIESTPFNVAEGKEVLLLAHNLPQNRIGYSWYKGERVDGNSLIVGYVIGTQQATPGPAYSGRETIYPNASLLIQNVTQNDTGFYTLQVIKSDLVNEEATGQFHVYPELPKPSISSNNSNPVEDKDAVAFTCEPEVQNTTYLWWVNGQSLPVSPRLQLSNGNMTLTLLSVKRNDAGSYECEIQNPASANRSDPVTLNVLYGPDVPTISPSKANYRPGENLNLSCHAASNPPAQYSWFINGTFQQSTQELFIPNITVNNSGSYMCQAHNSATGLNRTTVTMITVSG


Legend:
[1] = target: T1, human CEACAM5 on MKN-45 cells; test: flow cytometry on MKN45 CEA+ cancer cells (also carry CD47)
Procedure: (§1) Cells are harvested, counted, checked for viability and resuspended at 3×10⁶ cells/ml in FACS buffer (PBS 2% BSA, 0.1% NaN3). 100 μl of the cell suspension are distributed in V-bottom 96-well plates (3×10⁵ cells/well). The supernatant is removed by centrifugation 3 minutes at 4° C., 1300 rpm. Increasing concentrations of the antibody according to the invention are then added into the wells and incubated for 15 minutes at 4° C. Cells are washed twice with cold FACS buffer and re-incubated for further 15 minutes at 4° C. with the PE (R-phycoerythrin)-conjugated mouse anti-human IgG Fc secondary antibody (SouthernBiotech, pre-diluted 1:100 in FACS buffer). Cells are washed twice with cold FACS buffer and resuspended in 300 μl FACS buffer with 1:15000-diluted SytoxBlue (Life Technologies). Fluorescence is measured using a Cytoflex […]. Binding curves and EC50 values are obtained and calculated using GraphPad Prism? software. In the same manner binding of MAB CEA or MAB CEA1 to MKN-45 cells can be tested.

[2] = target: T3, human CD47 on MKN45 cells (human, UniProt Q08722 19-323); test: inhibition of SIRPα-mouseFc binding to CD47 on MKN45 cells, imaging (CX5); column 'SIRPα inhibition potency'
T3 construct: whole, on cells; also called IAP
From the text: Experimental set-up for the measurement of the SIRPα inhibition potency data shown for bispecific antibodies of this invention (results see table 2):
The detection of bound SIRPα cell-based assay monitoring the interaction of soluble SIRPα with human CD47 expressed at the surface of MKN45 is used for the detection of the blocking activity. Dose-response experiments with bispecific antibodies according to the invention allow determination of an IC50 value.
MKN45 cancer cells, expressing both CD47 and CEACAM5, are stained with CFSE violet to allow the imaging system (CX5) to detect the cells. Briefly, 3,000 stained MKN45 cells per well are seeded in a 384 optical well plate (Costar) and incubated for 50 minutes with increased concentrations of bispecific antibodies of the invention (1.9 pM to 333 nM, in quadruplicates). Then, a fixe concentration of SIRPα—mouseFc premixed with anti-mouse IgG-Fc AF647 coupled antibody (Jackson Immunoresearch diluted 1:2000) is added at 50 ng/mL final. After an incubation of 3H30 plates are acquired with the imaging system (CX5, Thermofisher) and fluorescence signals emitted by the detected bound SIRPα is recorded by the software dedicated to the imaging system. Fluorescence signals are plotted according to the dose range tested and IC50 are calculated by the software (Prism, Graphpad).

[3] = target: T2, human CEACAM6 on MKN-45 cells; test: legend of FIG. 21A, FACS on MKN-45 cells
Procedure: Binding to target cells (MKN-45) expressing CD47, CEACAM5 and CEACAM6 was assessed by FACS.
as §1

[4] = target: T1, human CEACAM5 on MKN-45 cells; test: flow cytometry (FACS) on MKN-45 cells, which express CD47, CEACAM5 and CEACAM6; the legend says K2AC39 binds CEACAM5 and CEACAM6, and the curve does not separate the two

EC50 [1] [nM]	IC50 [2] [nM]	binding result [3]	EC50 (read off the curve) [4] [µg/mL]	Binder
13	0.22	–	–	K2AC25 CEAxCD47 bispecific antibody (bispecific antibody, human IgG1, kappa, lambda, kappa-lambda body, human IgG1, common heavy chain; CEA arm light chain 2F4 (AC25)) heavy: not shown light 1: not shown light 2: QSVLTQPPSVSAAPGQKVTISCSGSSSNIGITPVSWYQQLPGTAPKLLIYSNNFRPSGIPDRFSGSKSGTSATLGITGLQTGDEADYYCGTWDRTGHEIRPVFGGGTKLTVLGQPKAAPSVTLFPPSSEELQANKATLVCLISDFYPGAVTVAWKADSSPVKAGVETTTPSKQSNNKYAASSYLSLTPEQWKSHRSYSCQVTHEGSTVEKTVAPTECS
1.15	0.22	–	–	K2AC10 CEAxCD47 bispecific antibody (bispecific antibody, human IgG1, kappa, lambda, kappa-lambda body, human IgG1, common heavy chain; CEA arm light chain 1D5 (AC10)) heavy: not shown light 1: not shown light 2: QSVLTQPPSVSGAPGQRVTISCTGSSSNIYANSNVHWYQQLPGTAPKLLIYSGSNRPSGVPDRFSGSKSGTSASLAITGLQAEDEADYYCQSYDPAHNLLTAVFGGGTKLTVLGQPKAAPSVTLFPPSSEELQANKATLVCLISDFYPGAVTVAWKADSSPVKAGVETTTPSKQSNNKYAASSYLSLTPEQWKSHRSYSCQVTHEGSTVEKTVAPTECS
132	7	–	–	K2AC18 CEAxCD47 bispecific antibody (bispecific antibody, human IgG1, kappa, lambda, kappa-lambda body, human IgG1, common heavy chain; CEA arm light chain 1A2 (AC18)) heavy: not shown light 1: not shown light 2: SYVLTQPPSVSVAPGKTARITCGGNGIGDASVHWYQQKPGQAPVLVIYSTTTRPSGIPERFSGSNSGNTATLTISRVEAGDEADYYCQVWDGFGPRHRAVFGGGTKLTVLGQPKAAPSVTLFPPSSEELQANKATLVCLISDFYPGAVTVAWKADSSPVKAGVETTTPSKQSNNKYAASSYLSLTPEQWKSHRSYSCQVTHEGSTVEKTVAPTECS
–	–	binds	~3	K2AC39 CD47xCEA bispecific antibody (bispecific antibody, human IgG1, kappa, lambda, K2 = KA3 CD47 light chain, AC39 = 1B2 CEA light chain) heavy: not shown light 1: not shown light 2: QSVLTQPPSVSAAPGQKVTISCSGSSSEITASGVSWYQQLPGTAPKLLIYDNNKRPSGIPDRFSGSKSGTSATLGITGLQTGDEADYYCGTWDFPPSRFVFGGGTKLTVLGQPKAAPSVTLFPPSSEELQANKATLVCLISDFYPGAVTVAWKADSSPVKAGVETTTPSKQSNNKYAASSYLSLTPEQWKSHRSYSCQVTHEGSTVEKTVAPTECS
12.7	0.32	–	–	K2AC26 CEAxCD47 bispecific antibody (bispecific antibody, human IgG1, kappa, lambda, kappa-lambda body, human IgG1, common heavy chain; CEA arm light chain 2F7 (AC26)) heavy: not shown light 1: not shown light 2: QSALTQPASVSGSPGQSITISCTGTSSDVKYANAVSWYQQHPGKAPKLMIYSNSIRPSGVSNRFSGSKSGNTASLTISGLQAEDEADYYCSSYDPRGNLLIRVFGGGTKLTVLGQPKAAPSVTLFPPSSEELQANKATLVCLISDFYPGAVTVAWKADSSPVKAGVETTTPSKQSNNKYAASSYLSLTPEQWKSHRSYSCQVTHEGSTVEKTVAPTECS
14.5	0.72	–	–	K2AC29 CEAxCD47 bispecific antibody (bispecific antibody, human IgG1, kappa, lambda, kappa-lambda body, human IgG1, common heavy chain; CEA arm light chain 2B5 (AC29)) heavy: not shown light 1: not shown light 2: QSALTQPASVSGSPGQSITISCTGTSSDVEFTNGVSWYQQHPGKAPKLMIYGFSSRPSGVSNRFSGSKSGNTASLTISGLQAEDEADYYCSSYDPPWHLLARVFGGGTKLTVLGQPKAAPSVTLFPPSSEELQANKATLVCLISDFYPGAVTVAWKADSSPVKAGVETTTPSKQSNNKYAASSYLSLTPEQWKSHRSYSCQVTHEGSTVEKTVAPTECS
